Data on 8 molecules can be found in publication PMC3792479 (Genes & Development, 2013).

Series [1] has as its target T1, CED-4 apoptosome (full-length wild-type CED-4) (C. elegans, UniProt P30429 1-549).
T1 sequence (looked up): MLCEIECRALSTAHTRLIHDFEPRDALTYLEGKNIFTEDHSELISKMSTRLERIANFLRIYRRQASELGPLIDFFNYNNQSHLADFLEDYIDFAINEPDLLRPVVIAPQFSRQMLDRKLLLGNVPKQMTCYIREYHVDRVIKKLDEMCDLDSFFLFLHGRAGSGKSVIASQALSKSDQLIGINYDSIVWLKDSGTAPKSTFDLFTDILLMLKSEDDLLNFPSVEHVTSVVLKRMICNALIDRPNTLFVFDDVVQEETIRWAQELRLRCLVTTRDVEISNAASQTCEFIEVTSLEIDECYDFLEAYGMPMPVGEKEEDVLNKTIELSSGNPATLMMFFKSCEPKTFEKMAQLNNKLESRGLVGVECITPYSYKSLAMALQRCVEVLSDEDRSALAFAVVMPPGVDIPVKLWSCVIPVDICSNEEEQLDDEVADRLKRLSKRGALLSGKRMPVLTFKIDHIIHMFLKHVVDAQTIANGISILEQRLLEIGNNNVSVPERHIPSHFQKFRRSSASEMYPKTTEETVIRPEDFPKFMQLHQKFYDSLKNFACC
The series can be described thus: crystal structure.

In series [2] the target is T1, CED-4 apoptosome (full-length wild-type …). In words: SEC.
The series “crystal structure” deals with the molecule itself. The series can be described thus: crystal structure.

Where no end group is shown, it is not given here. [ ]: non-standard residue; d: D form. SeMet = C[Se]CC[C@H](N)C(=O)O

As for GPLFNFLGCVRPQVQQVWRKK (peptide, UniProt P42573 389-409, looked up) [CED-3 L2′ loop fragment (residues 389–409)], the “stoichiometry N” value in series [1] was 8 L2′ loop fragments per CED-4 apoptosome. Take GP[SeMet]FNF[SeMet]GCVRPQVQQVWRKK (peptide, UniProt P42573 389-409, looked up) [CED-3 L2′ loop fragment (residues 389–409) with Leu391 and Leu395 replaced by selenomethionine]: in series [1], the binding result is “binds”. Still for that read-out and setting: to GPLFNF[SeMet]GCVRPQVQQVWRKK (peptide, UniProt P42573 389-409, looked up) [CED-3 L2′ loop fragment (residues 389–409) with Leu395 replaced by selenomethionine] belongs “binds”; to GP[SeMet]FNFLGCVRPQVQQVWRKK (peptide, UniProt P42573 389-409, looked up) [CED-3 L2′ loop fragment (residues 389–409) with Leu391 replaced by selenomethionine], “binds”.

B1: CED-3 (residues 198–503 and C358S) (domain or fragment, C. elegans, UniProt P42573 198-503, looked up)
chain: NRSFSKASGPTQYIFHEEDMNFVDAPTISRVFDEKTMYRNFSSPRGMCLIINNEHFEQMPTRNGTKADKDNLTNLFRCMGYTVICKDNLTGRGMLLTIRDFAKHESHGDSAILVILSHGEENVIIGVDDIPISTHEIYDLLNAANAPRLANKPKIVFVQASRGERRDNGFPVLDSVDGVPAFLRRGWDNRDGPLFNFLGCVRPQVQQVWRKKPSQADILIAYATTAQYVSWRNSARGSWFIQAVCEVFSTHAKDMDVVELLTEVNKKVACGFQTSQGSNILKQMPEMTSRLLKKFYFWPEARNSAV
For B1, the binding result in series [2] was “binds”.

B2: two-chain CED-3 (residues 198–374, 389–503, and C358A) (domain or fragment, C. elegans)
chain 1: NRSFSKASGPTQYIFHEEDMNFVDAPTISRVFDEKTMYRNFSSPRGMCLIINNEHFEQMPTRNGTKADKDNLTNLFRCMGYTVICKDNLTGRGMLLTIRDFAKHESHGDSAILVILSHGEENVIIGVDDIPISTHEIYDLLNAANAPRLANKPKIVFVQAARGERRDNGFPVLDSVD
chain 2: GPLFNFLGCVRPQVQQVWRKKPSQADILIAYATTAQYVSWRNSARGSWFIQAVCEVFSTHAKDMDVVELLTEVNKKVACGFQTSQGSNILKQMPEMTSRLLKKFYFWPEARNSAV
With B2, in series [2], the binding result is on record as “binds”.

B3: two-chain caspase domain of CED-3 (residues 198–374, 389–503, and C358S) (domain or fragment, C. elegans)
chain 1: NRSFSKASGPTQYIFHEEDMNFVDAPTISRVFDEKTMYRNFSSPRGMCLIINNEHFEQMPTRNGTKADKDNLTNLFRCMGYTVICKDNLTGRGMLLTIRDFAKHESHGDSAILVILSHGEENVIIGVDDIPISTHEIYDLLNAANAPRLANKPKIVFVQASRGERRDNGFPVLDSVD
chain 2: GPLFNFLGCVRPQVQQVWRKKPSQADILIAYATTAQYVSWRNSARGSWFIQAVCEVFSTHAKDMDVVELLTEVNKKVACGFQTSQGSNILKQMPEMTSRLLKKFYFWPEARNSAV
As to B3, the “stoichiometry N” value in the series “crystal structure” came out at 2.

B4: two-chain CED-3 with partial deletion of the L2 loop (residues 365–374) (domain or fragment, C. elegans)
chain 1: NRSFSKASGPTQYIFHEEDMNFVDAPTISRVFDEKTMYRNFSSPRGMCLIINNEHFEQMPTRNGTKADKDNLTNLFRCMGYTVICKDNLTGRGMLLTIRDFAKHESHGDSAILVILSHGEENVIIGVDDIPISTHEIYDLLNAANAPRLANKPKIVFVQAARGERRD
chain 2: GPLFNFLGCVRPQVQQVWRKKPSQADILIAYATTAQYVSWRNSARGSWFIQAVCEVFSTHAKDMDVVELLTEVNKKVACGFQTSQGSNILKQMPEMTSRLLKKFYFWPEARNSAV
Consider B4, for which, in series [2], the binding result was “binds”.

The stoichiometry N is the number of molecules, sites or subunits per partner or assembly.
